# Measurements as given in the supplement of paper PMC5998384.
# What was measured:
# HeLa Kyoto [1] = assay: melting temperature (median over replicates), in situ; higher = more thermally stable
# HeLa Kyoto [2] = assay: solubility in G1/S (NP-40 vs SDS abundance) (log2 ratio); higher = more soluble; details: cell cycle stage: G1/S
# HeLa Kyoto [3] = assay: solubility change mitosis vs G1/S (difference of NP-40 vs SDS log2 ratios) (log2 ratio difference); higher = more soluble in mitosis
# HeLa Kyoto [4] = assay: thermal stability score vs G1/S (z-score of summed log2 fold changes over temperatures); higher = more thermally stable than in G1/S
# [5] = cell cycle stage: early G1 (4.5 h after nocodazole release)
# 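Throughout, for melting temperature (median over replicates), in situ: HeLa Kyoto cells synchronized by double thymidine or nocodazole block, proteins quantified by TMT10plex mass spectrometry, three independent biological replicates.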
# 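Throughout, for solubility change mitosis vs G1/S (difference of NP-40 vs SDS log2 ratios): synchronized HeLa Kyoto cells (double thymidine block for G1/S, nocodazole release for mitosis), protein amounts in NP-40 versus SDS lysates quantified by mass spectrometry, three biological replicates.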
# 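Throughout, for solubility in G1/S (NP-40 vs SDS abundance): HeLa Kyoto cells arrested at G1/S by double thymidine block, proteins quantified by TMT10plex mass spectrometry in mild NP-40 versus SDS extracts, three biological replicates.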
# 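Throughout, for thermal stability score vs G1/S (z-score of summed log2 fold changes over temperatures): synchronized HeLa Kyoto cells, proteins quantified by TMT10plex mass spectrometry, three biological replicates, mitosis taken 0.5 h after nocodazole release, G1/S directly after double thymidine block.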
Sequence,melting temperature (HeLa Kyoto [1]; cell cycle stage: G1/S) [°C],melting temperature (HeLa Kyoto [1]; cell cycle stage: mitosis) [°C],solubility in G1/S (log2) (HeLa Kyoto [2]),solubility change mitosis (log2) (HeLa Kyoto [3]),thermal stability score (HeLa Kyoto [4]; [5]),thermal stability score (HeLa Kyoto [4]; cell cycle stage: mitosis)
MQGGEPVSTMKVSESEGKLEGQATAVTPNKNSSCGGGISSSSSSRGGSAKGWQYSDHMENVYGYLMKYTNLVTGWQYRFFVLNNEAGLLEYFVNEQSRNQKPRGTLQLAGAVISPSDEDSHTFTVNAASGEQYKLRATDAKERQHWVSRLQICTQHHTEAIGKNNPPLKSRSFSLASSSNSPISQRRPSQNAISFFNVGHSKLQSLSKRTNLPPDHLVEVREMMSHAEGQQRDLIRRIECLPTSGHLSSLDQDLLMLKATSMATMNCLNDCFHILQLQHASHQKGSLPSGTTIEWLEPKISLSNHYKNGADQPFATDQSKPVAVPEEQPVAESGLLAREPEEINADDEIEDTCDHKEDDLGAVEEQRSVILHLLSQLKLGMDLTRVVLPTFILEKRSLLEMYADFMSHPDLFIAITNGATAEDRMIRFVEYYLTSFHEGRKGAIAKKPYNPIIGETFHCSWKMPKSEVASSVFSSSSTQGVTNHAPLSGESLTQVGSDCYTVRFVAEQVSHHPPVSGFYAECTERKMCVNAHVWTKSKFLGMSIGVTMVGEGILSLLEHGEEYTFSLPCAYARSILTVPWVELGGKVSVNCAKTGYSASITFHTKPFYGGKLHRVTAEVKHNITNTVVCRVQGEWNSVLEFTYSNGETKYVDLTKLAVTKKRVRPLEKQDPFESRRLWKNVTDSLRESEIDKATEHKHTLEERQRTEERHRTETGTPWKTKYFIKEGDGWVYHKPLWKIIPTTQPAE [OSBPL11],50,50.4,-0.139,-0.0415,0.575,1.25
MQGPPLLTAAHLLCVCTAALAVAPGPRFLVTAPGIIRPGGNVTIGVELLEHCPSQVTVKAELLKTASNLTVSVLEAEGVFEKGSFKTLTLPSLPLNSADEIYELRVTGRTQDEILFSNSTRLSFETKRISVFIQTDKALYKPKQEVKFRIVTLFSDFKPYKTSLNILIKDPKSNLIQQWLSQQSDLGVISKTFQLSSHPILGDWSIQVQVNDQTYYQSFQVSEYVLPKFEVTLQTPLYCSMNSKHLNGTITAKYTYGKPVKGDVTLTFLPLSFWGKKKNITKTFKINGSANFSFNDEEMKNVMDSSNGLSEYLDLSSPGPVEILTTVTESVTGISRNVSTNVFFKQHDYIIEFFDYTTVLKPSLNFTATVKVTRADGNQLTLEERRNNVVITVTQRNYTEYWSGSNSGNQKMEAVQKINYTVPQSGTFKIEFPILEDSSELQLKAYFLGSKSSMAVHSLFKSPSKTYIQLKTRDENIKVGSPFELVVSGNKRLKELSYMVVSRGQLVAVGKQNSTMFSLTPENSWTPKACVIVYYIEDDGEIISDVLKIPVQLVFKNKIKLYWSKVKAEPSEKVSLRISVTQPDSIVGIVAVDKSVNLMNASNDITMENVVHELELYNTGYYLGMFMNSFAVFQECGLWVLTDANLTKDYIDGVYDNAEYAERFMEENEGHIVDIHDFSLGSSPHVRKHFPETWIWLDTNMGYRIYQEFEVTVPDSITSWVATGFVISEDLGLGLTTTPVELQAFQPFFIFLNLPYSVIRGEEFALEITIFNYLKDATEVKVIIEKSDKFDILMTSNEINATGHQQTLLVPSEDGATVLFPIRPTHLGEIPITVTALSPTASDAVTQMILVKAEGIEKSYSQSILLDLTDNRLQSTLKTLSFSFPPNTVTGSERVQITAIGDVLGPSINGLASLIRMPYGCGEQNMINFAPNIYILDYLTKKKQLTDNLKEKALSFMRQGYQRELLYQREDGSFSAFGNYDPSGSTWLSAFVLRCFLEADPYIDIDQNVLHRTYTWLKGHQKSNGEFWDPGRVIHSELQGGNKSPVTLTAYIVTSLLGYRKYQPNIDVQESIHFLESEFSRGISDNYTLALITYALSSVGSPKAKEALNMLTWRAEQEGGMQFWVSSESKLSDSWQPRSLDIEVAAYALLSHFLQFQTSEGIPIMRWLSRQRNSLGGFASTQDTTVALKALSEFAALMNTERTNIQVTVTGPSSPSPVKFLIDTHNRLLLQTAELAVVQPTAVNISANGFGFAICQLNVVYNVKASGSSRRRRSIQNQEAFDLDVAVKENKDDLNHVDLNVCTSFSGPGRSGMALMEVNLLSGFMVPSEAISLSETVKKVEYDHGKLNLYLDSVNETQFCVNIPAVRNFKVSNTQDASVSIVDYYEPRRQAVRSYNSEVKLSSCDLCSDVQGCRPCEDGASGSHHHSSVIFIFCFKLLYFMELWL [CD109],57.6,63.2,-0.179,-0.257,-0.942,1.58
MQKASVLLFLAWVCFLFYAGIALFTSGFLLTRLELTNHSSCQEPPGPGSLPWGSQGKPGACWMASRFSRVVLVLIDALRFDFAQPQHSHVPREPPVSLPFLGKLSSLQRILEIQPHHARLYRSQVDPPTTTMQRLKALTTGSLPTFIDAGSNFASHAIVEDNLIKQLTSAGRRVVFMGDDTWKDLFPGAFSKAFFFPSFNVRDLDTVDNGILEHLYPTMDSGEWDVLIAHFLGVDHCGHKHGPHHPEMAKKLSQMDQVIQGLVERLENDTLLVVAGDHGMTTNGDHGGDSELEVSAALFLYSPTAVFPSTPPEEPEVIPQVSLVPTLALLLGLPIPFGNIGEVMAELFSGGEDSQPHSSALAQASALHLNAQQVSRFLHTYSAATQDLQAKELHQLQNLFSKASADYQWLLQSPKGAEATLPTVIAELQQFLRGARAMCIESWARFSLVRMAGGTALLAASCFICLLASQWAISPGFPFCPLLLTPVAWGLVGAIAYAGLLGTIELKLDLVLLGAVAAVSSFLPFLWKAWAGWGSKRPLATLFPIPGPVLLLLLFRLAVFFSDSFVVAEARATPFLLGSFILLLVVQLHWEGQLLPPKLLTMPRLGTSATTNPPRHNGAYALRLGIGLLLCTRLAGLFHRCPEETPVCHSSPWLSPLASMVGGRAKNLWYGACVAALVALLAAVRLWLRRYGNLKSPEPPMLFVRWGLPLMALGTAAYWALASGADEAPPRLRVLVSGASMVLPRAVAGLAASGLALLLWKPVTVLVKAGAGAPRTRTVLTPFSGPPTSQADLDYVVPQIYRHMQEEFRGRLERTKSQGPLTVAAYQLGSVYSAAMVTALTLLAFPLLLLHAERISLVFLLLFLQSFLLLHLLAAGIPVTTPGPFTVPWQAVSAWALMATQTFYSTGHQPVFPAIHWHAAFVGFPEGHGSCTWLPALLVGANTFASHLLFAVGCPLLLLWPFLCESQGLRKRQQPPGNEADARVRPEEEEEPLMEMRLRDAPQHFYAALLQLGLKYLFILGIQILACALAASILRRHLMVWKVFAPKFIFEAVGFIVSSVGLLLGIALVMRVDGAVSSWFRQLFLAQQR [PIGO],53.6,52.7,-0.193,0.0305,-0.415,-0.374
MQKIKSLMTRQGLKSPQESLSDLGAIESLRVPGKEEFRELREQPSDPQAEQELINSIEQVYFSVDSFDIVKYELEKLPPVLNLQELEAYRDKLKQQQAAVSKKVADLILEKQPAYVKELERVTSLQTGLQLAAVICTNGRRHLNIAKEGFTQASLGLLANQRKRQLLIGLLKSLRTIKTLQRTDVRLSEMLEEEDYPGAIQLCLECQKAASTFKHYSCISELNSKLQDTLEQIEEQLDVALSKICKNFDINHYTKVQQAYRLLGKTQTAMDQLHMHFTQAIHNTVFQVVLGYVELCAGNTDTKFQKLQYKDLCTHVTPDSYIPCLADLCKALWEVMLSYYRTMEWHEKHDNEDTASASEGSNMIGTEETNFDRGYIKKKLEHGLTRIWQDVQLKVKTYLLGTDLSIFKYDDFIFVLDIISRLMQVGEEFCGSKSEVLQESIRKQSVNYFKNYHRTRLDELRMFLENETWELCPVKSNFSILQLHEFKFMEQSRSPSVSPSKQPVSTSSKTVTLFEQYCSGGNPFEIQANHKDEETEDVLASNGYESDEQEKSAYQEYDSDSDVPEELKRDYVDEQTGDGPVKSVSRETLKSRKKSDYSLNKVNAPILTNTTLNVIRLVGKYMQMMNILKPIAFDVIHFMSQLFDYYLYAIYTFFGRNDSLESTGLGLSSSRLRTTLNRIQESLIDLEVSADPTATLTAAEERKEKVPSPHLSHLVVLTSGDTLYGLAERVVATESLVFLAEQFEFLQPHLDAVMPAVKKPFLQQFYSQTVSTASELRKPIYWIVAGKALDYEQMLLLMANVKWDVKEIMSQHNIYVDALLKEFEQFNRRLNEVSKRVRIPLPVSNILWEHCIRLANRTIVEGYANVKKCSNEGRALMQLDFQQFLMKLEKLTDIRPIPDKEFVETYIKAYYLTENDMERWIKEHREYSTKQLTNLVNVCLGSHINKKARQKLLAAIDDIDRPKR [VPS50],50.8,49.6,-0.0656,-0.108,0.281,0.511
MQPASAKWYDRRDYVFIEFCVEDSKDVNVNFEKSKLTFSCLGGSDNFKHLNEIDLFHCIDPNDSKHKRTDRSILCCLRKGESGQSWPRLTKERAKLNWLSVDFNNWKDWEDDSDEDMSNFDRFSEMMNNMGGDEDVDLPEVDGADDDSQDSDDEKMPDLE [PTGES3],48.7,49.9,0.0757,-0.00282,3.93,3.45
MQPDMSLNVIKMKSSDFLESAELDSGGFGKVSLCFHRTQGLMIMKTVYKGPNCIEHNEALLEEAKMMNRLRHSRVVKLLGVIIEEGKYSLVMEYMEKGNLMHVLKAEMSTPLSVKGRIILEIIEGMCYLHGKGVIHKDLKPENILVDNDFHIKIADLGLASFKMWSKLNNEEHNELREVDGTAKKNGGTLYYMAPEHLNDVNAKPTEKSDVYSFAVVLWAIFANKEPYENAICEQQLIMCIKSGNRPDVDDITEYCPREIISLMKLCWEANPEARPTFPGIEEKFRPFYLSQLEESVEEDVKSLKKEYSNENAVVKRMQSLQLDCVAVPSSRSNSATEQPGSLHSSQGLGMGPVEESWFAPSLEHPQEENEPSLQSKLQDEANYHLYGSRMDRQTKQQPRQNVAYNREEERRRRVSHDPFAQQRPYENFQNTEGKGTAYSSAASHGNAVHQPSGLTSQPQVLYQNNGLYSSHGFGTRPLDPGTAGPRVWYRPIPSHMPSLHNIPVPETNYLGNTPTMPFSSLPPTDESIKYTIYNSTGIQIGAYNYMEIGGTSSSLLDSTNTNFKEEPAAKYQAIFDNTTSLTDKHLDPIRENLGKHWKNCARKLGFTQSQIDEIDHDYERDGLKEKVYQMLQKWVMREGIKGATVGKLAQALHQCSRIDLLSSLIYVSQN [RIPK1],48.4,48,0.0577,-0.114,0.9,1.82
MQPWHGKAMQRASEAGATAPKASARNARGAPMDPTESPAAPEAALPKAGKFGPARKSGSRQKKSAPDTQERPPVRATGARAKKAPQRAQDTQPSDATSAPGAEGLEPPAAREPALSRAGSCRQRGARCSTKPRPPPGPWDVPSPGLPVSAPILVRRDAAPGASKLRAVLEKLKLSRDDISTAAGMVKGVVDHLLLRLKCDSAFRGVGLLNTGSYYEHVKISAPNEFDVMFKLEVPRIQLEEYSNTRAYYFVKFKRNPKENPLSQFLEGEILSASKMLSKFRKIIKEEINDIKDTDVIMKRKRGGSPAVTLLISEKISVDITLALESKSSWPASTQEGLRIQNWLSAKVRKQLRLKPFYLVPKHAKEGNGFQEETWRLSFSHIEKEILNNHGKSKTCCENKEEKCCRKDCLKLMKYLLEQLKERFKDKKHLDKFSSYHVKTAFFHVCTQNPQDSQWDRKDLGLCFDNCVTYFLQCLRTEKLENYFIPEFNLFSSNLIDKRSKEFLTKQIEYERNNEFPVFDEF [MB21D1],52.6,53.9,-1.72,-0.155,-0.379,1.19
MQRLLFPPLRALKGRQYLPLLAPRAAPRAQCDCIRRPLRPGQYSTISEVALQSGRGTVSLPSKAAERVVGRWLLVCSGTVAGAVILGGVTRLTESGLSMVDWHLIKEMKPPTSQEEWEAEFQRYQQFPEFKILNHDMTLTEFKFIWYMEYSHRMWGRLVGLVYILPAAYFWRKGWLSRGMKGRVLALCGLVCFQGLLGWYMVKSGLEEKSDSHDIPRVSQYRLAAHLGSALVLYCASLWTSLSLLLPPHKLPETHQLLQLRRFAHGTAGLVFLTALSGAFVAGLDAGLVYNSFPKMGESWIPEDLFTFSPILRNVFENPTMVQFDHRILGITSVTAITVLYFLSRRIPLPRRTKMAAVTLLALAYTQVGLGISTLLMYVPTPLAATHQSGSLALLTGALWLMNELRRVPK [COX15],56.5,57.9,-0.208,-0.0819,-2.54,-1.54
